Molecular target: the molecule itself
Test: affinity purification with mass spectrometry; anti-apo A-II monoclonal antibody covalently bound on a PS-20 protein chip; plasma diluted 1:2 in TBS pH 7.4 or purified HDL, 2 h at room temperature; washes 4 x TBS, TBS-Tween 0.005 %, 5 mM Hepes; SELDI-TOF MS of captured native HDL

B1: apolipoprotein A-II (natural protein)
chain: not shown
notes: apolipoprotein A-II of human plasma HDL; dimer at about 17.4 kDa (17099, 17221 and 17352 m/z); Three dimer species were seen: the full dimer and dimers lacking one or two terminal (probably C-terminal) glutamine residues; The dimer is probably the disulfide-linked one (my surmise); Present on native HDL particles; also called apo A-II; source: endogenous, human plasma (HDL particles captured …)
B1 was tested, and the “stoichiometry N” value was 2.
